Measurements reported in the supplement of paper PMC9732359.
± gives the uncertainty stated by the source.

Assay: protein stability index of a GFP-peptide fusion (yeast GPS) (PSI 1-4); higher = more stable; sorted into four equal gates, so the index is relative within each strain
Summary of the method: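 Tiled 17-residue yeast protein peptides were fused downstream of GFP in a plasmid that also expresses Cherry, and the pooled library was carried in yeast. Mid-log cultures in leucine-free medium were sorted into four equal gates by GFP/Cherry fluorescence ratio, and plasmids from each gate were PCR-amplified and Illumina-sequenced, with reads assigned to strains by barcodes. The protein stability index for each peptide was each gate's read frequency times its gate number, summed.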

SLGDGTNYYLTTARNDL [CSL4]
protein stability index (doa10∆): 2.66 ± 0.068
protein stability index (pdr5∆): 2.71 ± 0.068
protein stability index (san1∆): 2.83 ± 0.049
protein stability index (ubr1∆): 2.91 ± 0.1

MGDELTRSHFNALYDTL [RPN6]
protein stability index (doa10∆): 2.3 ± 0.048
protein stability index (pdr5∆): 2.45 ± 0.067
protein stability index (san1∆): 2.67 ± 0.051
protein stability index (ubr1∆): 2.74 ± 0.044

KIRMLTQAAEFLSPYIS [IRR1]
protein stability index (doa10∆): 1.84 ± 0.04
protein stability index (pdr5∆): 2.46 ± 0.047
protein stability index (san1∆): 1.74 ± 0.074
protein stability index (ubr1∆): 2.23 ± 0.045

VSPTNVMGTPLTNMMSP [PGD1]
protein stability index (doa10∆): 2.77 ± 0.1
protein stability index (san1∆): 2.92 ± 0.091
protein stability index (ubr1∆): 3.26 ± 0.093

VLALKVEDFLERRLQTQ [RPS9A]
protein stability index (doa10∆): 2.42 ± 0.14
protein stability index (pdr5∆): 2.86 ± 0.092
protein stability index (san1∆): 2.63 ± 0.072
protein stability index (ubr1∆): 2.83 ± 0.076

FGSRVMIAKEVKTSPDA [FAS1]
protein stability index (doa10∆): 3.37 ± 0.12
protein stability index (pdr5∆): 2.76 ± 0.26
protein stability index (san1∆): 2.81 ± 0.27
protein stability index (ubr1∆): 3.49 ± 0.2

LQGVTYPVLRKLYKKIA [YIL149C/MLP2]
protein stability index (doa10∆): 1.94 ± 0.093
protein stability index (pdr5∆): 1.79 ± 0.056
protein stability index (san1∆): 1.55 ± 0.14
protein stability index (ubr1∆): 1.83 ± 0.055

KVTCSSNSSSSPPIIDL [MED1]
protein stability index (doa10∆): 2.53 ± 0.044
protein stability index (pdr5∆): 2.76 ± 0.044
protein stability index (san1∆): 2.87 ± 0.032
protein stability index (ubr1∆): 2.74 ± 0.033

KAGLMTGGISGDANNRW [SMC1]
protein stability index (doa10∆): 2.38 ± 0.11
protein stability index (pdr5∆): 2.31 ± 0.088
protein stability index (san1∆): 2.54 ± 0.062
protein stability index (ubr1∆): 2.51 ± 0.074

LHIHLNQILQTEIENYL [YDL116W/NUP84]
protein stability index (doa10∆): 1.88 ± 0.054
protein stability index (pdr5∆): 2.15 ± 0.042
protein stability index (san1∆): 2.03 ± 0.075
protein stability index (ubr1∆): 1.86 ± 0.043

LLKQYPKDSSSTFREWK [YJR042W/NUP85]
protein stability index (doa10∆): 2.54 ± 0.045
protein stability index (pdr5∆): 2.6 ± 0.048
protein stability index (san1∆): 2.71 ± 0.038
protein stability index (ubr1∆): 2.81 ± 0.042

NEVSLAIKKSSMKMELL [SMC2]
protein stability index (doa10∆): 2.69 ± 0.071
protein stability index (pdr5∆): 2.49 ± 0.082
protein stability index (san1∆): 3.34 ± 0.12
protein stability index (ubr1∆): 2.21 ± 0.075

NSSMRYGYWFDCRMGNF [AAR2]
protein stability index (san1∆): 1.83 ± 0.12

VNDKYKTCAEVIGGNSL [SMC3]
protein stability index (doa10∆): 3.06 ± 0.14
protein stability index (pdr5∆): 3.15 ± 0.16
protein stability index (san1∆): 3.29 ± 0.11
protein stability index (ubr1∆): 3.21 ± 0.15

PRLDDVVVDTVECAQHC [SMC4]
protein stability index (doa10∆): 3.22 ± 0.1
protein stability index (pdr5∆): 3.31 ± 0.13
protein stability index (san1∆): 3.17 ± 0.092
protein stability index (ubr1∆): 2.75 ± 0.13

PPKEGNYEIVFDTVSNK [YMR129W/POM152]
protein stability index (doa10∆): 3.11 ± 0.086
protein stability index (pdr5∆): 3.13 ± 0.095
protein stability index (san1∆): 3.29 ± 0.26
protein stability index (ubr1∆): 3 ± 0.1

HYKQQIAVLIELLEERF [YCS4]
protein stability index (doa10∆): 2.01 ± 0.07
protein stability index (pdr5∆): 2.12 ± 0.065
protein stability index (san1∆): 2.48 ± 0.1
protein stability index (ubr1∆): 2.34 ± 0.072

VDSGEERNEQEREIMND [SWI3]
protein stability index (doa10∆): 3.42 ± 0.069
protein stability index (pdr5∆): 3.26 ± 0.064
protein stability index (san1∆): 3.02 ± 0.079
protein stability index (ubr1∆): 3.24 ± 0.11

IVDTSGRHHQEEELFQE [SRP54]
protein stability index (doa10∆): 3.31 ± 0.07
protein stability index (pdr5∆): 3.13 ± 0.043
protein stability index (san1∆): 3.07 ± 0.056
protein stability index (ubr1∆): 3.24 ± 0.053

KSFANHTEDEQIEKKKI [SIR4]
protein stability index (doa10∆): 2.96 ± 0.14
protein stability index (pdr5∆): 2.28 ± 0.087
protein stability index (san1∆): 2.66 ± 0.096
protein stability index (ubr1∆): 2.13 ± 0.048

YEHNGRTLEAITATLVG [CSL4]
protein stability index (doa10∆): 2.03 ± 0.051
protein stability index (pdr5∆): 2.05 ± 0.051
protein stability index (san1∆): 1.83 ± 0.066
protein stability index (ubr1∆): 2.04 ± 0.038

ITLFVLVSVVEAFIASG [FAS2]
protein stability index (doa10∆): 1.53 ± 0.048
protein stability index (pdr5∆): 1.41 ± 0.043
protein stability index (san1∆): 2.06 ± 0.061
protein stability index (ubr1∆): 1.8 ± 0.051

LKNSIMSFIFPSYAERQ [YML031W/NDC1]
protein stability index (doa10∆): 2.51 ± 0.075
protein stability index (pdr5∆): 2.54 ± 0.083
protein stability index (san1∆): 2.38 ± 0.079
protein stability index (ubr1∆): 2.4 ± 0.067

EVVKSLYDRPLKPDLNK [NAS6]
protein stability index (doa10∆): 3.18 ± 0.11
protein stability index (pdr5∆): 3.38 ± 0.098
protein stability index (san1∆): 2.85 ± 0.18
protein stability index (ubr1∆): 3.42 ± 0.1

ANIQLDFPELKPYKQVK [FAS2]
protein stability index (doa10∆): 3.16 ± 0.1
protein stability index (pdr5∆): 2.85 ± 0.094
protein stability index (san1∆): 2.97 ± 0.11
protein stability index (ubr1∆): 3.17 ± 0.077

ISTVIEVNREEAIGFIR [SMC3]
protein stability index (doa10∆): 2.93 ± 0.21
protein stability index (pdr5∆): 2.65 ± 0.11
protein stability index (san1∆): 2.86 ± 0.16
protein stability index (ubr1∆): 2.57 ± 0.088

KDERGEGEAKQKRNAHG [ITC1]
protein stability index (doa10∆): 3.21 ± 0.18
protein stability index (pdr5∆): 3.69 ± 0.23
protein stability index (san1∆): 3.46 ± 0.098
protein stability index (ubr1∆): 3.34 ± 0.14

RTPYLTSLKKIKDEIDD [SWI1]
protein stability index (doa10∆): 2.86 ± 0.16
protein stability index (pdr5∆): 2.66 ± 0.091
protein stability index (san1∆): 2.21 ± 0.12
protein stability index (ubr1∆): 2.62 ± 0.079

ETEIKDLTQLLEKERSI [SMC4]
protein stability index (doa10∆): 3.34 ± 0.079
protein stability index (pdr5∆): 3.15 ± 0.048
protein stability index (san1∆): 3.24 ± 0.051
protein stability index (ubr1∆): 3.25 ± 0.039

MRQQSKELQQLQKQILT [SMC1]
protein stability index (doa10∆): 3.32 ± 0.13
protein stability index (pdr5∆): 3.05 ± 0.074
protein stability index (san1∆): 3.29 ± 0.039
protein stability index (ubr1∆): 3.17 ± 0.049

QVIFEIFEISLQRKDYT [YML103C/NUP188]
protein stability index (doa10∆): 2 ± 0.053
protein stability index (pdr5∆): 2.19 ± 0.056
protein stability index (san1∆): 2.51 ± 0.069
protein stability index (ubr1∆): 2.84 ± 0.061

WTELCQREFKEIMEERN [NNF1]
protein stability index (doa10∆): 2.98 ± 0.21
protein stability index (pdr5∆): 3.41 ± 0.16
protein stability index (san1∆): 3.13 ± 0.072
protein stability index (ubr1∆): 3.2 ± 0.074

PFMSYSPQLTAIIGLKS [SNF12]
protein stability index (doa10∆): 1.67 ± 0.055
protein stability index (pdr5∆): 2.16 ± 0.062
protein stability index (san1∆): 2.3 ± 0.078
protein stability index (ubr1∆): 1.98 ± 0.053

EQVRKMYQEWEDETVKV [NSL1]
protein stability index (doa10∆): 3.7 ± 0.09
protein stability index (pdr5∆): 3.52 ± 0.083
protein stability index (san1∆): 3.406 ± 0.032
protein stability index (ubr1∆): 3.58 ± 0.077

TPSSDQNPLPTRFEVEL [SOH1]
protein stability index (doa10∆): 3.35 ± 0.088
protein stability index (pdr5∆): 3.1 ± 0.061
protein stability index (san1∆): 2.65 ± 0.075
protein stability index (ubr1∆): 3.19 ± 0.049

STFQTRRRRLKKVEEEE [RPB4]
protein stability index (doa10∆): 3.33 ± 0.15
protein stability index (pdr5∆): 3.52 ± 0.12
protein stability index (ubr1∆): 3.36 ± 0.14

PIKEAKIKHGSVTEIPL [YMR129W/POM152]
protein stability index (doa10∆): 2.9 ± 0.046
protein stability index (pdr5∆): 3 ± 0.046
protein stability index (san1∆): 2.6 ± 0.06
protein stability index (ubr1∆): 2.99 ± 0.05

NIAQMIPGMSNMMNQVG [SRP54]
protein stability index (doa10∆): 2.47 ± 0.064
protein stability index (pdr5∆): 2.6 ± 0.076
protein stability index (san1∆): 2.67 ± 0.06
protein stability index (ubr1∆): 2.7 ± 0.078

DPKLEKCLNYRNVNWIE [ITC1]
protein stability index (doa10∆): 2.96 ± 0.069
protein stability index (pdr5∆): 2.88 ± 0.09
protein stability index (san1∆): 2.96 ± 0.056
protein stability index (ubr1∆): 2.95 ± 0.046

AENLLQLKTGLAAIVST [YGL172W/NUP49]
protein stability index (pdr5∆): 3.3 ± 0.19
protein stability index (san1∆): 2.99 ± 0.087
protein stability index (ubr1∆): 2.5 ± 0.2

QAYFSRLELPVDFQNDL [BRR2]
protein stability index (doa10∆): 2.65 ± 0.15
protein stability index (pdr5∆): 2.1 ± 0.064
protein stability index (san1∆): 2.54 ± 0.066
protein stability index (ubr1∆): 2.32 ± 0.044

ALKRSYGIFGEGVEYSF [POP8]
protein stability index (doa10∆): 2.45 ± 0.092
protein stability index (pdr5∆): 2.71 ± 0.052
protein stability index (san1∆): 2.46 ± 0.097
protein stability index (ubr1∆): 2.86 ± 0.051

NDLDEDDIYDISLLKNR [RPN4]
protein stability index (doa10∆): 2.87 ± 0.12
protein stability index (pdr5∆): 3.2 ± 0.11
protein stability index (san1∆): 3.23 ± 0.14
protein stability index (ubr1∆): 3.22 ± 0.2

EVFSVLGIEAARYSIIR [RPO31]
protein stability index (doa10∆): 1.72 ± 0.13
protein stability index (pdr5∆): 1.63 ± 0.11
protein stability index (san1∆): 1.43 ± 0.25
protein stability index (ubr1∆): 1.59 ± 0.14

EKVRPTPGEVASKAIVQ [MCD1]
protein stability index (doa10∆): 3.16 ± 0.14
protein stability index (pdr5∆): 2.42 ± 0.084
protein stability index (san1∆): 1.55 ± 0.29
protein stability index (ubr1∆): 2.84 ± 0.25

SVLRDTLVAQNLKQANN [SMC4]
protein stability index (doa10∆): 2.68 ± 0.082
protein stability index (pdr5∆): 2.53 ± 0.06
protein stability index (san1∆): 2.48 ± 0.052
protein stability index (ubr1∆): 2.33 ± 0.035

QLFHNLISIHSRENNSE [YJL039C/NUP192]
protein stability index (doa10∆): 2.6 ± 0.079
protein stability index (pdr5∆): 2.61 ± 0.076
protein stability index (san1∆): 2.3 ± 0.11
protein stability index (ubr1∆): 2.88 ± 0.091

TYEIICDQTKSVPLMIN [RRP43]
protein stability index (doa10∆): 1.66 ± 0.073
protein stability index (pdr5∆): 2.3 ± 0.11
protein stability index (san1∆): 1.49 ± 0.11
protein stability index (ubr1∆): 1.55 ± 0.069

GELKRGNESVKPQFENH [MED11]
protein stability index (doa10∆): 3.34 ± 0.18
protein stability index (pdr5∆): 3.21 ± 0.089
protein stability index (san1∆): 2.98 ± 0.11
protein stability index (ubr1∆): 2.97 ± 0.16
